Laboratory results taken from US20190169246A1 (UNIVERSITY OF SOUTH FLORIDA, published 2019).

Target: APC
Sequence (Q14114 33-826): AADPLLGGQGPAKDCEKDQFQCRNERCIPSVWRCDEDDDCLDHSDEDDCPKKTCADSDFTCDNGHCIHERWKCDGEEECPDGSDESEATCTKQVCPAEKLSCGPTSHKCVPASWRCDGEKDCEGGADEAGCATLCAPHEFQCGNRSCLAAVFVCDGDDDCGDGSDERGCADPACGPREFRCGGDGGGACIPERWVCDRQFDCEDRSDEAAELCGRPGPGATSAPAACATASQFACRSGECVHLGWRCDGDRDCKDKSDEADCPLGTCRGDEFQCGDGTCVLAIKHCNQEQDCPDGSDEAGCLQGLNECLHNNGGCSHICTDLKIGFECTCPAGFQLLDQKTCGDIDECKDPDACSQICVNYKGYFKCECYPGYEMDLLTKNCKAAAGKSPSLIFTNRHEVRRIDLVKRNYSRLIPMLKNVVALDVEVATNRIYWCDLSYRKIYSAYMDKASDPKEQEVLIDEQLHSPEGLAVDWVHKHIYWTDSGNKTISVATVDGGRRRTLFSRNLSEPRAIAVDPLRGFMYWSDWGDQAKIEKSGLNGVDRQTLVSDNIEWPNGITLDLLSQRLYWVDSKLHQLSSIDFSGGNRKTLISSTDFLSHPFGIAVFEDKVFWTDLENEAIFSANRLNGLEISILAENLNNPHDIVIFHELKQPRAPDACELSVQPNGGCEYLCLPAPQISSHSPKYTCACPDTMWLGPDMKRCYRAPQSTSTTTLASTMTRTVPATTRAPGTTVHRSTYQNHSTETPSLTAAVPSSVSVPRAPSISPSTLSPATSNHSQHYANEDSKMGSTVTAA

Kd: 30 nM
B1: ApoER2 (as bound by APC) (receptor)
chain: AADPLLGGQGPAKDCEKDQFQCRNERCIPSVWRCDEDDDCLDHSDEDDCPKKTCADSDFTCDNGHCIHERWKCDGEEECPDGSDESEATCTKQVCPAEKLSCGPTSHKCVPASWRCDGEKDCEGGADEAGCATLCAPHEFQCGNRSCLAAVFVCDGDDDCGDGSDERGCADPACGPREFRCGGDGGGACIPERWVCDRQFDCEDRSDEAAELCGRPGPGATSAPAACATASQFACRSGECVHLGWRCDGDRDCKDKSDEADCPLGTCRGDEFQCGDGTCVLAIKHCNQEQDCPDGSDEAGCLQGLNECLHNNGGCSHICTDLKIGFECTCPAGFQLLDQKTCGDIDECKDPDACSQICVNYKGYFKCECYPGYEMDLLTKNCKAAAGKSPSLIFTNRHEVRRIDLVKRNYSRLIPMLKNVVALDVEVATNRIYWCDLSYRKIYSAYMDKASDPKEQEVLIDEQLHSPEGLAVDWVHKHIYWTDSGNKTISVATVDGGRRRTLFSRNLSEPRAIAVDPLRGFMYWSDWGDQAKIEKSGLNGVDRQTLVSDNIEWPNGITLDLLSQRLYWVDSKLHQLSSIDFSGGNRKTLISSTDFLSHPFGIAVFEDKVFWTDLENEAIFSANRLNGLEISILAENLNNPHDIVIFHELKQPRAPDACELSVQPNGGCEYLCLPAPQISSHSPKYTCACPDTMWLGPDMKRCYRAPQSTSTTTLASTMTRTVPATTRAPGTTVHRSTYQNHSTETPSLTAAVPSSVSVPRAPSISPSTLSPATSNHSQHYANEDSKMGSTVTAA
